{"source": "paper PMC4686654", "about": "“A molecular ruler regulates cytoskeletal remodelling by the Rho kinases” (Nature Communications, 2015)", "key": {"[1]": {"biological_target": "the molecule itself", "assay": "static light scattering; recombinant ROCK2 in solution; mass 327 kDa, polydispersity index 1.000"}, "[2]": {"biological_target": "the molecule itself", "assay": "SEC; Superdex 75 in 20 mM Tris pH 7.5, 100 mM NaCl, 1 mM TCEP, 4 mM MgCl2"}, "[3]": {"biological_target": "T1, RBD fragment of human ROCK2 (977-1,047) (human, UniProt O75116 977-1047)", "T1 chain": "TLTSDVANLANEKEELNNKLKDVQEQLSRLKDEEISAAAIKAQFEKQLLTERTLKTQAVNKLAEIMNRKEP", "assay": "SEC; Superdex 75 in 20 mM Tris pH 7.5, 100 mM NaCl, 1 mM TCEP, 4 mM MgCl2", "details": "both partners purified"}, "[4]": {"biological_target": "human ROCK2 1-408 (kinase domain alone) (human)", "assay": "not stated; recombinant catalytic domain in solution", "details": "both partners purified"}}}
{"binder": "human ROCK2 (Rho-associated coiled-coil kinase 2), full-length recombinant (enzyme, mono- and diphosphorylated species, two adjacent serines (1,352-1,353)) MPGAPETAPGDGAGASRQRKLEALIRDPRSPINVESLLDGLNSLVLDLDFPALRKNKNIDNFLNRYEKIVKKIRGLQMKAEDYDVVKVIGRGAFGEVQLVRHKASQKVYAMKLLSKFEMIKRSDSAFFWEERDIMAFANSPWVVQLFYAFQDDRYLYMVMEYMPGGDLVNLMSNYDVPEKWAKFYTAEVVLALDAIHSMGLIHRDVKPDNMLLDKHGHLKLADFGTCMKMDETGMVHCDTAVGTPDYISPEVLKSQGGDGFYGRECDWWSVGVFLYEMLVGDTPFYADSLVGTYSKIMDHKNSLCFPEDAEISKHAKNLICAFLTDREVRLGRNGVEEIRQHPFFKNDQWHWDNIRETAAPVVPELSSDIDSSNFDDIEDDKGDVETFPIPKAFVGNQLPFIGFTYYRENLLLSDSPSCRETDSIQSRKNEESQEIQKKLYTLEEHLSNEMQAKEELEQKCKSVNTRLEKTAKELEEEITLRKSVESALRQLEREKALLQHKNAEYQRKADHEADKKRNLENDVNSLKDQLEDLKKRNQNSQISTEKVNQLQRQLDETNALLRTESDTAARLRKTQAESSKQIQQLESNNRDLQDKNCLLETAKLKLEKEFINLQSALESERRDRTHGSEIINDLQGRICGLEEDLKNGKILLAKVELEKRQLQERFTDLEKEKSNMEIDMTYQLKVIQQSLEQEEAEHKATKARLADKNKIYESIEEAKSEAMKEMEKKLLEERTLKQKVENLLLEAEKRCSLLDCDLKQSQQKINELLKQKDVLNEDVRNLTLKIEQETQKRCLTQNDLKMQTQQVNTLKMSEKQLKQENNHLMEMKMNLEKQNAELRKERQDADGQMKELQDQLEAEQYFSTLYKTQVRELKEECEEKTKLGKELQQKKQELQDERDSLAAQLEITLTKADSEQLARSIAEEQYSDLEKEKIMKELEIKEMMARHKQELTEKDATIASLEETNRTLTSDVANLANEKEELNNKLKDVQEQLSRLKDEEISAAAIKAQFEKQLLTERTLKTQAVNKLAEIMNRKEPVKRGNDTDVRRKEKENRKLHMELKSEREKLTQQMIKYQKELNEMQAQIAEESQIRIELQMTLDSKDSDIEQLRSQLQALHIGLDSSSIGSGPGDAEADDGFPESRLEGWLSLPVRNNTKKFGWVKKYVIVSSKKILFYDSEQDKEQSNPYMVLDIDKLFHVRPVTQTDVYRADAKEIPRIFQILYANEGESKKEQEFPVEPVGEKSNYICHKGHEFIPTLYHFPTNCEACMKPLWHMFKPPPALECRRCHIKCHKDHMDKKEEIIAPCKVYYDISTAKNLLLLANSTEEQQKWVSRLVKKIPKKPPAPDPFARSSPRTSMKIQQNQSIRRPSRQLAPNKPS", "values": [{"measurement": "stoichiometry N", "setting": "[1]", "value": 2}]}
{"binder": "RBD fragment of human ROCK1 (947-1,015) (domain or fragment, UniProt Q13464 947-1015, looked up, also called ROCK1 RBD; source: E. coli BL21 (DE3), purified (NiNTA, Superdex 75)) MLTKDIEILRRENEELTEKMKKAEEEYKLEKEEEISNLKAAFEKNINTERTLKTQAVNKLAEIMNRKDF", "values": [{"measurement": "stoichiometry N", "setting": "[2]", "value": 2}]}
{"binder": "RBD fragment of human ROCK2 (977-1,047) (domain or fragment, none; His6 tag omitted. The limits are read in O75116 numbering: the fragment is said to match the crystal-structure RBD, and ROCK1 947-1015 (RhoBD 949-1015) aligns with O75116 979-1047 (RhoBD), so …) TLTSDVANLANEKEELNNKLKDVQEQLSRLKDEEISAAAIKAQFEKQLLTERTLKTQAVNKLAEIMNRKEP", "values": [{"measurement": "stoichiometry N", "setting": "[3]", "value": 2}]}
{"binder": "human ROCK2 1-408 (kinase domain alone) (domain or fragment, paper residues 1-408 on the 1,379-residue form = O75116 10-417; activation loop not phosphorylated; constitutive dimer; tag cleaved / paper residues 1-408 on the 1,379-residue form = O75116 10-417 …) MPGAPETAPGDGAGASRQRKLEALIRDPRSPINVESLLDGLNSLVLDLDFPALRKNKNIDNFLNRYEKIVKKIRGLQMKAEDYDVVKVIGRGAFGEVQLVRHKASQKVYAMKLLSKFEMIKRSDSAFFWEERDIMAFANSPWVVQLFYAFQDDRYLYMVMEYMPGGDLVNLMSNYDVPEKWAKFYTAEVVLALDAIHSMGLIHRDVKPDNMLLDKHGHLKLADFGTCMKMDETGMVHCDTAVGTPDYISPEVLKSQGGDGFYGRECDWWSVGVFLYEMLVGDTPFYADSLVGTYSKIMDHKNSLCFPEDAEISKHAKNLICAFLTDREVRLGRNGVEEIRQHPFFKNDQWHWDNIRETAAPVVPELSSDIDSSNFDDIEDDKGDVETFPIPKAFVGNQLPFIGFTYYR", "values": [{"measurement": "stoichiometry N", "setting": "[4]", "value": 2}]}
